Measured values published in PMC6385242, “Identification and characterization of a factor Va-binding site on human prothrombin fragment 2” (Scientific Reports, 2019).

What was measured:
Factor Va [1] = target: Factor Va (UniProt P12259)
Factor Va [2] = target: Factor Va (UniProt P12259); remark: listed apart in the source
Factor Va [3] = target: Factor Va (UniProt P12259); assay: SPR; Biacore T200; FVa amine-coupled on a CM5 chip (8000-9000 RU); prothrombin 0-10,000 nM injected for 60 s at 30 uL/min; HBS (0.02 M HEPES, 0.15 M NaCl, pH 7.4) with 5 mM CaCl2 and 0.01% Tween-80; kinetic 1:1 Langmuir model

Sequence of Factor Va (P12259 29-737, chain 1 of 2): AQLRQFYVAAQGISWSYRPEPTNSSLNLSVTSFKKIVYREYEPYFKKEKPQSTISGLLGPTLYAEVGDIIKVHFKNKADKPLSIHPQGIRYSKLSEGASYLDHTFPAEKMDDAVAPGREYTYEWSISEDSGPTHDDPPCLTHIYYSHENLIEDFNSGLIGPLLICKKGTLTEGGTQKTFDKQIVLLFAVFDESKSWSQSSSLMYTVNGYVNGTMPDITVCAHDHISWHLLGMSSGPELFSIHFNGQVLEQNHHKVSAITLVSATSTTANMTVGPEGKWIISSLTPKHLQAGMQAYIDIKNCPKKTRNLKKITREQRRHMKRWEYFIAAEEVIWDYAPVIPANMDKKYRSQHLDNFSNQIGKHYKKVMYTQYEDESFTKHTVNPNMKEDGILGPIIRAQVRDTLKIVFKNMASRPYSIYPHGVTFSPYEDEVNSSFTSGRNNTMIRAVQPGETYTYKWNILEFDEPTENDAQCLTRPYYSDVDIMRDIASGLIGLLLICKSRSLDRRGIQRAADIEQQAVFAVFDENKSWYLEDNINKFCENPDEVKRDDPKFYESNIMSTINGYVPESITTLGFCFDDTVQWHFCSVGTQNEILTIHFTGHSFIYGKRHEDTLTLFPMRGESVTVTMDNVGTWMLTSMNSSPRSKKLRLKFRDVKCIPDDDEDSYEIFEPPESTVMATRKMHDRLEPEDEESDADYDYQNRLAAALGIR
Sequence of Factor Va (P12259 1574-2224, chain 2 of 2): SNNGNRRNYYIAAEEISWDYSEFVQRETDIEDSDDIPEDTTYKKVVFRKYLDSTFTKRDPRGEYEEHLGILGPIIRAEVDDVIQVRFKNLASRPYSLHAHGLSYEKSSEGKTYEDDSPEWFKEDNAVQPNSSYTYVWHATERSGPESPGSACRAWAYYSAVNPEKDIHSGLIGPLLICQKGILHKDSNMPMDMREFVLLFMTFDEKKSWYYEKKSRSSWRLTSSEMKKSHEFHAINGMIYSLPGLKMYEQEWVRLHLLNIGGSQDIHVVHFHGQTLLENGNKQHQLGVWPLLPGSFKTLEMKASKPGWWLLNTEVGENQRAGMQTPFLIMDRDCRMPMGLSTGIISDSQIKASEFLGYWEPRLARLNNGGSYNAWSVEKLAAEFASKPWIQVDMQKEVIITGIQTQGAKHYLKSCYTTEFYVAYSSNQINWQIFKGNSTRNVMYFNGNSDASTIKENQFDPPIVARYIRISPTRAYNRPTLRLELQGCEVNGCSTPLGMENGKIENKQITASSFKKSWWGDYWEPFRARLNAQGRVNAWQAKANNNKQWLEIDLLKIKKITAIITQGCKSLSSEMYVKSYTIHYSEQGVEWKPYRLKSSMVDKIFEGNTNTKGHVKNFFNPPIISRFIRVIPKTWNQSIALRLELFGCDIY

initial rate of thrombin generation, activation by FXa/FVa (5 nM FXa, 20 nM FVa, 5 mM CaCl2; DAPA) (Factor Va [1]): 0.0053 s⁻¹
initial rate of thrombin generation, activation by full prothrombinase (20 pM FXa, 20 nM FVa, 50 uM PCPS, 5 mM CaCl2; DAPA) (Factor Va [1]): 55.1 s⁻¹
total thrombin generated on activation by FXa/FVa, relative to wild-type prothrombin (% of wild type) (Factor Va [2]): 35
total thrombin generated on activation by full prothrombinase, decrease against wild-type prothrombin (% lower than wild type) (Factor Va [2]): 42
Kd (Factor Va [3]): 2600 nM
Substance: PT6 prothrombin (Gln177Ala, Gln179Ala, Arg181Ala, Leu182Thr, Val184Thr, Thr185Ala) (natural protein)
